Experiments:
[1] = target: T1, human epidermal growth factor receptor 3 (HER3) (human, UniProt P21860 20-1342); test: cell-based or functional assay
[2] = target: T1, human epidermal growth factor receptor …; test: flow cytometry on KPL-4 cells
Protocol: (§1) The affinity of anti-human HER3 ADC to MDA-MB-453, NCI-H358, KPL-4, and A431 cells was detected by flow cytometry (Beckman, model Cytoflex).
(§2) Adherent MDA-MB-453, NCI-H358, KPL-4, A431 cells were digested with Tryple (manufacturer: Gibco) solution, counted, and an appropriate amount of the cells were taken, washed twice with 1×PBS, resuspended in 1% BSA in PBS solution, and then transferred to a 96-well sharp-bottom plate, 50 μl per well; candidate antibodies and drug conjugates thereof were diluted with 1% BSA in PBS solution by 3-fold or 2.5-fold serial dilution starting from 5 μg/mL, and then 50 μl of the diluted antibody or antibody-drug conjugate was added to the sharp-bottom plate containing the cells, and incubation was carried out at 4° C. for 40 minutes; the cells were washed twice with PBS, then added with 50 μl of diluted secondary antibody to each well, mixed, and incubated at 4° C. for 30 minutes; the cells were washed with PBS twice, then resuspended in 400 μl of PBS and detected by flow cytometry. Data processing: the average fluorescence signal values were exported, and then input into GraphPad Prism 6 software to calculate EC50.

[3] = target: T1, human epidermal growth factor receptor …; test: flow cytometry on A431 cells
Protocol: as §1, §2

[4] = target: T1, human epidermal growth factor receptor …; test: flow cytometry on NCI-H358 cells
Protocol: as §1, §2

[5] = target: T1, human epidermal growth factor receptor …; test: flow cytometry on MDA-MB-453 cells
Protocol: as §1, §2

[6] = target: T1, human epidermal growth factor receptor …; test: flow cytometry on MDA-MB-453 cells (second experiment, dilution from 15 ug/mL)
Protocol: The affinity of anti-human HER3 ADC to MDA-MB-453 cells was detected by flow cytometry (Beckman, model Cytoflex).
Adherent MDA-MB-453 cells were digested with Tryple (manufacturer: Gibco) solution, counted, and an appropriate amount of the cells were taken, washed twice with 1×PBS, resuspended in 1% BSA solution, and then transferred to a 96-well sharp-bottom plate, 50 μl per well; candidate antibodies and drug conjugates thereof were diluted with 1% BSA by 3-fold serial dilution starting from 15 μg/mL, and then 50 μl of the diluted antibody or antibody-drug conjugate was added to the sharp-bottom plate containing the cells, and incubation was carried out at 4° C. for 40 minutes; the cells were washed twice with PBS, then added with 50 μl of diluted secondary antibody to each well, mixed, and incubated at 4° C. for 30 minutes; the cells were washed with PBS twice, then resuspended in 200 μl of PBS and detected by flow cytometry. Data processing: the average fluorescence signal values were exported, and then input into GraphPad Prism 6 software to calculate EC50.

Row | Binder | IC50 (nM), in vitro cytotoxicity (CCK8, 6 days) on HEK293T-hHER3 cells [1] [nM] | EC50 [2] [µg/mL] | EC50 [3] [µg/mL] | EC50 [4] [µg/mL] | EC50 [5] [µg/mL] | EC50 [6] [µg/mL] | IC50 (nM), in vitro cytotoxicity (CCK8, 6 days) on HCC1569 cells [1] [nM] | IC50 (nM), in vitro cytotoxicity (CCK8, 6 days) on MDA-MB-453 cells [1] [nM]
1 | ADC 22B6-A-01 (antibody, human IgG1, kappa, V domains shown, drug-linker A-01 on a cysteine sulfhydryl group; LC-DAR1 ratio 0.990; drug-linker A-01 on cysteine sulfhydryl groups after TCEP reduction; mainly 3 per heavy chain (HC-DAR3 ratio 0.981)) VH: EVHLVESGGGVVQPGRSLRLSCATSGFTFRSYGMHWVRQAPGKGLEWVAVIWYDGSNKYYADSVKGRFTISRDISKNTLYLQMNSLTAEDTAVYYCARYYYDSNGYYDAFDIWGQGTMVTVSS VL: DIQLTQSPSFLSASVGDRVTITCRASQGISNYLAWYQQKPGKAPKLLIFAASTLQSGVPSRFSGSGSGAEFTLTISSLEPEDFATYYCQQLNSYPITFGQGTRLEIKR | 0.0014 | 0.0387 | 0.0307 | 0.0445 |  |  |  | 
2 | 22B6D2-hIgG1 (antibody, V domains shown) VH: EVHLVESGGGVVQPGRSLRLSCATSGFTFRSYGMHWVRQAPGKGLEWVAVIWYDGSNKYYADSVKGRFTISRDISKNTLYLQMNSLTAEDTAVYYCARYYYDSNGYYDAFDIWGQGTMVTVSS VL: DIQLTQSPSFLSASVGDRVTITCRASQGISNYLAWYQQKPGKAPKLLIFAASTLQSGVPSRFSGSGSGAEFTLTISSLEPEDFATYYCQQLNSYPITFGQGTRLEIKR |  |  |  |  | 0.0392 | 0.0854 |  | 
3 | ADC 22B6-B-04-02 (antibody, human IgG1, kappa, V domains shown, drug-linker B-04 on cysteine sulfhydryl groups after TCEP reduction (overall DAR 6.87; split between the chains not given), Antibody-drug conjugate of 22B6D2-hIgG1 with drug-linker B-04; also called 22B6-B-04-2) VH: EVHLVESGGGVVQPGRSLRLSCATSGFTFRSYGMHWVRQAPGKGLEWVAVIWYDGSNKYYADSVKGRFTISRDISKNTLYLQMNSLTAEDTAVYYCARYYYDSNGYYDAFDIWGQGTMVTVSS VL: DIQLTQSPSFLSASVGDRVTITCRASQGISNYLAWYQQKPGKAPKLLIFAASTLQSGVPSRFSGSGSGAEFTLTISSLEPEDFATYYCQQLNSYPITFGQGTRLEIKR |  |  |  |  |  | 0.195 |  | 
4 | ADC 22B6-A-07-A-1 (antibody, human IgG1, kappa, V domains shown, drug-linker A-07-A on a cysteine sulfhydryl group; mainly 1 per light chain (LC-DAR1 ratio 0.998); drug-linker A-07-A on cysteine sulfhydryl groups after TCEP reduction; mainly 3 per heavy chain (HC-DAR3 ratio 0.966)) VH: EVHLVESGGGVVQPGRSLRLSCATSGFTFRSYGMHWVRQAPGKGLEWVAVIWYDGSNKYYADSVKGRFTISRDISKNTLYLQMNSLTAEDTAVYYCARYYYDSNGYYDAFDIWGQGTMVTVSS VL: DIQLTQSPSFLSASVGDRVTITCRASQGISNYLAWYQQKPGKAPKLLIFAASTLQSGVPSRFSGSGSGAEFTLTISSLEPEDFATYYCQQLNSYPITFGQGTRLEIKR | 0.0038 | 0.0325 | 0.0284 | 0.0329 | 0.056 | 0.147 | 15.6 | 19
5 | ADC 22B6-B-01 (antibody, human IgG1, kappa, V domains shown, drug-linker B-01 on a cysteine sulfhydryl group; LC-DAR1 ratio 0.999; drug-linker B-01 on cysteine sulfhydryl groups after TCEP reduction; mainly 3 per heavy chain (HC-DAR3 ratio 0.933)) VH: EVHLVESGGGVVQPGRSLRLSCATSGFTFRSYGMHWVRQAPGKGLEWVAVIWYDGSNKYYADSVKGRFTISRDISKNTLYLQMNSLTAEDTAVYYCARYYYDSNGYYDAFDIWGQGTMVTVSS VL: DIQLTQSPSFLSASVGDRVTITCRASQGISNYLAWYQQKPGKAPKLLIFAASTLQSGVPSRFSGSGSGAEFTLTISSLEPEDFATYYCQQLNSYPITFGQGTRLEIKR |  | 0.0519 | 0.0328 | 0.0298 |  |  |  | 
6 | U1-59 (HER3 control antibody) (antibody, V domains shown) VH: QVQLQQWGAGLLKPSETLSLTCAVYGGSFSGYYWSWIRQPPGKGLEWIGEINHSGSTNYNPSLKSRVTISVETSKNQFSLKLSSVTAADTAVYYCARDKWTWYFDLWGRGTLVTVSS VL: not shown |  |  |  |  | 0.426 | 0.684 |  | 
7 | ADC 100H7-A-07-A (antibody, human IgG1, kappa, V domains shown, drug-linker A-07-A on a cysteine sulfhydryl group; LC-DAR1 ratio 1.000; drug-linker A-07-A on cysteine sulfhydryl groups after TCEP reduction; mainly 3 per heavy chain (HC-DAR3 ratio 0.989)) VH: EVQLVESGGGVVLPGRSLRLSCAASGFTFSRNAMHWVRQAPGKGLEWVAVIWHDGSNKYYGDSVKGRFTISRDNSKNTLYLQMDSLTAEDTAVYYCARDRGASDFRGQGTLVTVSS VL: DIQMTQSPSTLSASVGDRVTITCRASQSINNWLAWYQQKPEKAPKLLIYKASSLESGVPSRFSGSGSGTEFTLTISSLQPDDFATYYCQQYNSYSLTFGGGTKVEIKR |  | 0.274 | 0.266 | 0.427 |  |  |  | 
8 | ADC 47A3-A-07-A (antibody, human IgG1, kappa, V domains shown, drug-linker A-07-A on a cysteine sulfhydryl group; LC-DAR1 ratio 0.820; drug-linker A-07-A on cysteine sulfhydryl groups after TCEP reduction; HC-DAR3 ratio 0.760, HC-DAR0 ratio 0.222) VH: EVQLQESGPGLVKPSQTLSLTCAISGDSVSSSQSTWNWIRQSPSRGLEWLGRTFYRSRWYNDYALSMKSRITINPDTSKNQFSLQLNPVTPEDTAVYYCARDTYYYGSGGFDYWGQGSRVTVSS VL: DIQMTQSPSTLSASVGDRVTITCRASQSLSRWLAWYQQKPEKAPKLLIYKASSLESGVPSRFSGSGSGTEFTLTISTLQPDDFATYYCQQYKNYYSFGQGTKLEIKR |  | 0.125 | 0.0656 | 0.158 |  |  |  | 
